Results on two molecules are retold here after patent CN117603358A (INST MICROBIOLOGY CAS; 3SBIO GROUP; SHANXI ADVANCED …, dated 2024).

Among the targets are S蛋白, SARS-CoV-2 Delta (SARS-CoV-2 Delta); S蛋白, SARS-CoV-2 BA.1.1 (SARS-CoV-2 BA.1.1); S蛋白, SARS-CoV-2 BA.2 (SARS-CoV-2 BA.2); S蛋白, SARS-CoV-2 BA.3 (SARS-CoV-2 BA.3); S蛋白, SARS-CoV-2 XBB.1.16 (SARS-CoV-2 XBB.1.16); S蛋白, SARS-CoV-2 EG.5突变株 (SARS-CoV-2 EG.5).
Common to all, as to assay: cell-based or functional assay
The target of experiment [1] is S蛋白, SARS-CoV-2 BA.1 (SARS-CoV-2 BA.1).
Experiment [2] has as its target T1, S蛋白, SARS-CoV-2 BA.2.75 (SARS-CoV-2 BA.2.75).
The target in experiment [3] is S蛋白, SARS-CoV-2 BA.4/5 (SARS-CoV-2 BA.4/5).
The target in experiment [4] is S蛋白, SARS-CoV-2 BF.7 (SARS-CoV-2 BF.7).
Experiment [5] deals with S蛋白, SARS-CoV-2 BQ.1 (SARS-CoV-2 BQ.1).
Experiment [6] concerns the target S蛋白, SARS-CoV-2 BQ.1.1 (SARS-CoV-2 BQ.1.1).
For experiment [7], the target named is S蛋白, SARS-CoV-2 XBB (SARS-CoV-2 XBB).
The target of experiment [8] is T2, S蛋白, SARS-CoV-2 XBB.1.5 (SARS-CoV-2 XBB.1.5).
The target in experiment [9] is S蛋白, SARS-CoV-2 BA.1 (SARS-CoV-2 BA.1). This is another data set of the same source.
Experiment [10] concerns the target T1, S蛋白, SARS-CoV-2 BA.2.75. This is another data set of the same source.
For experiment [11], the target named is S蛋白, SARS-CoV-2 BA.4/5 (SARS-CoV-2 BA.4/5). The source holds these as a separate data set.
The target of experiment [12] is S蛋白, SARS-CoV-2 BF.7 (SARS-CoV-2 BF.7). The source holds these as a separate data set.
The target of experiment [13] is S蛋白, SARS-CoV-2 BQ.1 (SARS-CoV-2 BQ.1). The source holds these as a separate data set.
Experiment [14] concerns the target S蛋白, SARS-CoV-2 BQ.1.1 (SARS-CoV-2 BQ.1.1). The source holds these as a separate data set.
Experiment [15] concerns the target S蛋白, SARS-CoV-2 XBB (SARS-CoV-2 XBB). The source holds these as a separate data set.
Experiment [16] has as its target T2, S蛋白, SARS-CoV-2 XBB.1.5. The source holds these as a separate data set.

B1: L4.65单抗 (antibody, V domains shown)
VH: QITLKESGPTLVKPTQTLTLTCTFSGFSLSTSGVGVAWIRQPPGKALEWLALIYWDNDKRSSPSLNNRLTITKDTSKNQVVLTMTNMDPEDTATYYCAHFFSHYDSSNYYYGSWFDPWGQGTLVTVSS
VL: EIVLTQSPGTLSLSPGERATLSCRASQSFDSRYLGWYQQKSGQAPRLLIYGASSRATGIPDRFSGSGSGTDFTLTISRLEPEDFAVYYCQQFGDSPFTFGQGTKLEIKR
Take B1: the “假病毒中和活性 IC50” value is 0.00252 µg/mL with S蛋白, SARS-CoV-2 Delta; 0.00135 µg/mL with S蛋白, SARS-CoV-2 BA.1 [1]; 0.0112 µg/mL in the experiment with S蛋白, SARS-CoV-2 BA.2.75 [2]; 0.00138 µg/mL with S蛋白, SARS-CoV-2 BA.4/5 [3]; 0.00212 µg/mL in the experiment with S蛋白, SARS-CoV-2 BF.7 [4]; greater than 2 µg/mL in the experiment with S蛋白, SARS-CoV-2 BQ.1 [5]. Also, the “假病毒中和活性 IC50” value with S蛋白, SARS-CoV-2 BQ.1.1 [6] was greater than 2 µg/mL; with S蛋白, SARS-CoV-2 XBB [7], 0.0214 µg/mL; in the experiment with S蛋白, SARS-CoV-2 XBB.1.5 [8], 0.0541 µg/mL. The “假病毒中和效果 IC50” value with S蛋白, SARS-CoV-2 BA.1 [9] is 0.000394 µg/mL; in the experiment with S蛋白, SARS-CoV-2 BA.1.1 it was 0.00028 µg/mL; with S蛋白, SARS-CoV-2 BA.2, 0.00039 µg/mL; with S蛋白, SARS-CoV-2 BA.2.75 [10], 0.00194 µg/mL; with S蛋白, SARS-CoV-2 BA.3, 0.00044 µg/mL; with S蛋白, SARS-CoV-2 BA.4/5 [11] it was 0.000377 µg/mL. The “假病毒中和效果 IC50” value turned out to be 0.000446 µg/mL with S蛋白, SARS-CoV-2 BF.7 [12]; 2.09 µg/mL with S蛋白, SARS-CoV-2 BQ.1 [13]; 4.58 µg/mL with S蛋白, SARS-CoV-2 BQ.1.1 [14]; 0.00335 µg/mL with S蛋白, SARS-CoV-2 XBB [15]; 0.0137 µg/mL with S蛋白, SARS-CoV-2 XBB.1.5 [16]; 0.0103 µg/mL in the experiment with S蛋白, SARS-CoV-2 XBB.1.16. Moreover, the “假病毒中和效果 IC50” value in the experiment with S蛋白, SARS-CoV-2 EG.5突变株 was found to be 0.0521 µg/mL.

B2: CoV56单抗 (antibody, V domains shown)
VH: EVQLVESGGGVVQPGGSLRLSCAVSGFTFDDYAMHWVRQAPGKGLDWVSLISGDGSYTYYADSVKGRFTISRDSSKNSLYLQMNSLRTEDTALYYCAKAQTPTLWWLQDAFDIWGQGTMVTVSS
VL: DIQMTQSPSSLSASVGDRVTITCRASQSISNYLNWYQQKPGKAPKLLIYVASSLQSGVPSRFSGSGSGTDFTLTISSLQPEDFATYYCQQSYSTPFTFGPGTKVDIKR
For the molecule B2, the “假病毒中和活性 IC50” value is greater than 2 µg/mL with S蛋白, SARS-CoV-2 Delta; greater than 2 µg/mL with S蛋白, SARS-CoV-2 BA.1 [1]; greater than 2 µg/mL with S蛋白, SARS-CoV-2 BA.2.75 [2]; greater than 2 µg/mL with S蛋白, SARS-CoV-2 BA.4/5 [3]; greater than 2 µg/mL with S蛋白, SARS-CoV-2 BF.7 [4]; greater than 2 µg/mL with S蛋白, SARS-CoV-2 BQ.1 [5]. Besides, the “假病毒中和活性 IC50” value in the experiment with S蛋白, SARS-CoV-2 BQ.1.1 [6] was greater than 2 µg/mL; with S蛋白, SARS-CoV-2 XBB [7], greater than 2 µg/mL; with S蛋白, SARS-CoV-2 XBB.1.5 [8], greater than 2 µg/mL. Moreover, the “假病毒中和效果 IC50” value with S蛋白, SARS-CoV-2 BA.1 [9] was 14.8 µg/mL; in the experiment with S蛋白, SARS-CoV-2 BA.1.1, 10.8 µg/mL; in the experiment with S蛋白, SARS-CoV-2 BA.2, 8.32 µg/mL; in the experiment with S蛋白, SARS-CoV-2 BA.2.75 [10] it was 58.8 µg/mL; with S蛋白, SARS-CoV-2 BA.3, 18.5 µg/mL; with S蛋白, SARS-CoV-2 BA.4/5 [11] it was 7.53 µg/mL. Besides, the “假病毒中和效果 IC50” value came to 11.7 µg/mL with S蛋白, SARS-CoV-2 BF.7 [12]; 19.6 µg/mL in the experiment with S蛋白, SARS-CoV-2 BQ.1 [13]; 15.9 µg/mL with S蛋白, SARS-CoV-2 BQ.1.1 [14]; 15.9 µg/mL with S蛋白, SARS-CoV-2 XBB [15]; 11.8 µg/mL with S蛋白, SARS-CoV-2 XBB.1.5 [16]; 21.7 µg/mL with S蛋白, SARS-CoV-2 XBB.1.16. For the same molecule, the “假病毒中和效果 IC50” value with S蛋白, SARS-CoV-2 EG.5突变株 was found to be 13.6 µg/mL.
